The results in this text go back to PMC3783171, “Sulfolobus chromatin proteins modulate strand displacement by DNA polymerase B1”.

One data set concerns the target T1, Sso7d (Sulfolobus solfataricus, UniProt P39476 1-64).
T1 sequence: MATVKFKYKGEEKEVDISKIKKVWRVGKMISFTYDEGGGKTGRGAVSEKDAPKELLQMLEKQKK
The data set can be described thus: EMSA; apparent Kd; 4 mM Mg2+, 25 C; EMSA: 50 mM Tris-HCl pH 8.0, 2 mM beta-mercaptoethanol, 0.1 mg/ml BSA, 4 mM MgCl2, 5% glycerol, 2 nM probe, 10 min at 25 C (room temperature), 5% PAGE in 0.1x TBE; Tm: 10 mM potassium phosphate pH 7.0, 20-90 C. The following applies: protein: recombinant, blunt.

The target of data set [1] is T2, Cren7 (Sulfolobus solfataricus, UniProt Q97ZE3 1-60).
T2 sequence: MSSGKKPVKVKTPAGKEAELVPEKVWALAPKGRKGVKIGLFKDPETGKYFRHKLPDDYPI
The data set can be described thus: thermal denaturation (A260); EMSA: 50 mM Tris-HCl pH 8.0, 2 mM beta-mercaptoethanol, 0.1 mg/ml BSA, 4 mM MgCl2, 5% glycerol, 2 nM probe, 10 min at 25 C (room temperature), 5% PAGE in 0.1x TBE; Tm: 10 mM potassium phosphate pH 7.0, 20-90 C. The conditions noted are these: protein: recombinant; blunt.

Data set [2] deals with T2, Cren7. The data set can be described thus: EMSA; 4 mM Mg2+, 25 C; EMSA: 50 mM Tris-HCl pH 8.0, 2 mM beta-mercaptoethanol, 0.1 mg/ml BSA, 4 mM MgCl2, 5% glycerol, 2 nM probe, 10 min at 25 C (room temperature), 5% PAGE in 0.1x TBE; Tm: 10 mM potassium phosphate pH 7.0, 20-90 C. The following applies: protein: recombinant; label: 32P on D30; blunt.

B1: 30-bp RNA:DNA hybrid (R30/Com30) (DNA:RNA)
RNA: UGCUUCCUUCAAUGUGCUGGGAUCCUACAA
DNA: TTGTAGGATCCCAGCACATTGAAGGAAGCA
modifications: R30 strand is RNA
Consider B1, for which the Kd with Sso7d (label: 32P on R30) amounted to 0.5 µM.

B2: 15-bp dsDNA (D15/Com15) (dsDNA)
DNA 1: TGCATCCTTCAAGAC
DNA 2: GTCTTGAAGGATGCA
As to B2, the binding result with Cren7 [1] is given as “binds”.

B3: 30-bp dsDNA (D30/Com30) (dsDNA)
DNA 1: TGCTTCCTTCAATGTGCTGGGATCCTACAA
DNA 2: TTGTAGGATCCCAGCACATTGAAGGAAGCA
On to B3, for which, in the data set with Cren7 [2], the binding result is recorded as “binds”. For the same molecule, the Kd in the data set with Sso7d (label: 32P on D30) was determined as 0.15 µM.
